Reference: paper PMC4104443

Test system: O=NO
Experiment: purified protein
Settings: 50 mM potassium phosphate pH 7.0, 4 °C, anaerobic, nitrite up to 50 mM

Work on “AxNiR (AxCuNiR) (Achromobacter xylosoxidans; F330C)” yielded a Km of 1200 ± 100 µM, a kcat of 310 s⁻¹ and a kcat/Km of 260000 M⁻¹ s⁻¹.
